From the PETadex activity labels (doi:10.1002/cssc.202101062) come the findings set out here.

Substrate in data set [1]: PET
Kind of data set: Proxy for plastic degradation [Released monomer concentration (HPLC/LC-MS) (TPA+MHET)]. As to conditions: pH 8.

Substrate in data set [2]: PET
The data set can be described thus: Proxy for plastic degradation [Weight/mass loss]. As to conditions: pH 8.

Substrate in data set [3]: gfPET
Kind of data set: Proxy for plastic degradation [Weight/mass loss]. The following applies: pH 8.

Substrate in data set [4]: gfPET
The data set can be described thus: Proxy for plastic degradation [Released monomer concentration (HPLC/LC-MS) (TPA+MHET+BHET)].

B1: unnamed (protein)
chain: MDGVLWRVRTAALMAALLALAAWALVWASPSVEAQSNPYQRGPNPTRSALTADGPFSVATYTVSRLSVSGFGGGVIYYPTGTSLTFGGIAMSPGYTADASSLAWLGRRLASHGFVVLVINTNSRFDYPDSRASQLSAALNYLRTSSPSAVRARLDANRLAVAGHSMGGGGTLRIAEQNPSLKAAVPLTPWHTDKTFNTSVPVLIVGAEADTVAPVSQHAIPFYQNLPSTTPKVYVELDNASHFAPNSNNAAISVYTISWMKLWVDNDTRYRQFLCNVNDPALSDFRTNNRHCQ
Regarding B1, the “Proxy for plastic degradation” value in the data set with PET [1] (0 h) turned out to be 0 mM; with PET [1] (4 h), 3 mM; in the data set with PET [1] (8 h), 7 mM; with PET [1] (16 h), 29 mM.

B2: unnamed (protein)
chain: MENPYERGPDPTESSIEAVRGPFAVAQTTVSRLQADGFGGGTIYYPTDTSQGTFGAVAISPGFTAGQESIAWLGPRIASQGFVVITIDTITRLDQPDSRGRQLQAALDHLRTNSVVRNRIDPNRMAVMGHSMGGGGALSAAANNTSLEAAIPLQGWHTRKNWSSVRTPTLVVGAQLDTIAPVSSHSEAFYNSLPSDLDKAYMELRGASHFVSNTPDTTTAKYSIAWLKRFVDNDLRYEQFLCPAPDDFAISEYRATCPF
Consider B2, for which the “Proxy for plastic degradation” value stood at 15% in the data set with PET [2] (65 °C); 20% in the data set with PET [2] (70 °C); 18% with PET [2] (75 °C); 18% in the data set with gfPET [3] (65 °C); 18% with gfPET [3] (70 °C); 18% with gfPET [3] (75 °C). The “Proxy for plastic degradation” value turned out to be 0 mmol/h in the data set with gfPET [4] (40 °C); 0.08 mmol/h with gfPET [4] (50 °C); 0.11 mmol/h with gfPET [4] (55 °C); 0.18 mmol/h with gfPET [4] (60 °C); 0.25 mmol/h with gfPET [4] (65 °C); 0.3 mmol/h with gfPET [4] (70 °C). For the same protein, the “Proxy for plastic degradation” value with gfPET [4] (75 °C) is 0.38 mmol/h; with gfPET [4] (80 °C), 0.41 mmol/h; with gfPET [4] (85 °C), 0.38 mmol/h.

B3: unnamed (protein)
chain: MANPYERGPDPTESSIEAVRGPFAVAQTTVSRLQADGFGGGTIYYPTDTSQGTFGAVAISPGFTAGQESIAWLGPRIASQGFVVITIDTITRLDQPDSRGRQLQAALDHLRTNSVVRNRIDPNRMAVMGHSMGGGGALSAAANNTSLEAAIPLQGWHTRKNWSSVRTPTLVVGAQLDTIAPVSSHSEAFYNSLPSDLDKAYMELRGASHLVSNTPDTTTAKYSIAWLKRFVDDDLRYEQFLCPAPDDFAISEYRSTCPF
In the case of B3, the “Proxy for plastic degradation” value in the data set with PET [2] (65 °C, part of the chain shown) amounted to 75%; in the data set with PET [2] (70 °C, part of the chain shown), 95%; in the data set with PET [2] (75 °C, part of the chain shown), 60%; with gfPET [3] (65 °C, part of the chain shown) it was 77%; with gfPET [3] (70 °C, part of the chain shown), 90%; in the data set with gfPET [3] (75 °C, part of the chain shown) it was 58%. Besides, the “Proxy for plastic degradation” value is 0 mM in the data set with PET [1] (0 h, part of the chain shown); 15 mM with PET [1] (4 h, part of the chain shown); 26 mM with PET [1] (8 h, part of the chain shown); 50 mM with PET [1] (16 h, part of the chain shown); 0 mmol/h with gfPET [4] (40 °C, part of the chain shown); 0.45 mmol/h in the data set with gfPET [4] (50 °C, part of the chain shown). For the same protein, the “Proxy for plastic degradation” value in the data set with gfPET [4] (55 °C, part of the chain shown) was found to be 0.8 mmol/h; with gfPET [4] (60 °C, part of the chain shown), 0.9 mmol/h; in the data set with gfPET [4] (65 °C, part of the chain shown), 1.1 mmol/h; in the data set with gfPET [4] (70 °C, part of the chain shown) it was 1.4 mmol/h; with gfPET [4] (75 °C, part of the chain shown) it was 1.7 mmol/h; with gfPET [4] (80 °C, part of the chain shown) it was 1.65 mmol/h. Besides, in the data set with gfPET [4] (85 °C, part of the chain shown), the “Proxy for plastic degradation” value was found to be 0.9 mmol/h.

B4: unnamed (protein)
chain: MANPYERGPAPTTSSIEASRGPFAIASVTVSRSSVSGFGGGTIYYPRDTSEGTFGAVAIAPGFTADEGSMAWYGPRIASQGFVVFTIDTITRLDQPDSRGRQLLAALDYLTQRSSVRSRIDSSRLAVMGHSMGGGGSLEASVSRPSLKAAIPLTPWNLKKNWRDVRVPTLIVGAESDSIASVRTHAEPFYESIPSTTNKAYLELNNATHFAPNISNTTIAKYSISWLKRFVDNDTRYEQFLCPPPRPDRDIEEYRSTCPH
Regarding B4, the “Proxy for plastic degradation” value in the data set with PET [2] (45 °C) was 1%; in the data set with PET [2] (50 °C), 2.5%; with PET [2] (55 °C), 1%; with PET [2] (60 °C) it was 0.5%; with gfPET [4] (40 °C), 0 mmol/h; with gfPET [4] (50 °C) it was 0.38 mmol/h. The “Proxy for plastic degradation” value with gfPET [4] (55 °C) came to 0.2 mmol/h; in the data set with gfPET [4] (60 °C) it was 0.1 mmol/h; with gfPET [4] (65 °C), 0.05 mmol/h; in the data set with gfPET [4] (70 °C), 0.05 mmol/h; in the data set with gfPET [4] (75 °C), 0.05 mmol/h; in the data set with gfPET [4] (80 °C) it was 0.05 mmol/h. Moreover, the “Proxy for plastic degradation” value with gfPET [4] (85 °C) was found to be 0.05 mmol/h.

B5: unnamed (protein)
chain: MANPYERGPDPTVQSIEAVRGPFSVSETNVSRLVVTGFGGGTIYYPRDTSQGTFGAVAIAPGFTASEGSMAWYGPRIASQGFVVFTIDTLTRLDQPDSRGRQLLAALDYLTQRSSVRSRIDSSRLAVMGHSMGGGGSLEASESRPSLKASIPLTPWNLKKNWRNNRVPTLIVGAENDSIASVRTHAEPFYESIPSTTNKAYLELNNATHFAPNISNTTIAKYSISWLKRFVDNDTRYEQFLCPPPRPDRDIEEYRCTCPY
Turning to B5, the “Proxy for plastic degradation” value amounted to 2% in the data set with PET [2] (45 °C); 2.5% in the data set with PET [2] (50 °C); 1% with PET [2] (55 °C); 0.5% in the data set with PET [2] (60 °C); 0 mmol/h with gfPET [4] (40 °C); 0.2 mmol/h with gfPET [4] (50 °C). The “Proxy for plastic degradation” value in the data set with gfPET [4] (55 °C) was 0.22 mmol/h; in the data set with gfPET [4] (60 °C), 0.19 mmol/h; in the data set with gfPET [4] (65 °C), 0.1 mmol/h; with gfPET [4] (70 °C), 0.08 mmol/h; with gfPET [4] (75 °C), 0.06 mmol/h; with gfPET [4] (80 °C), 0.05 mmol/h. For the same protein, in the data set with gfPET [4] (85 °C), the “Proxy for plastic degradation” value came out at 0.05 mmol/h.
